From the DeepSol protein solubility set

Test: soluble on expression in E. coli; label from the status in PepcDB or PDB records
With “MGSDKIHHHHHHMAEERVEPKPIDLGEYKFGFHDDVEPVLSTGKGLNEGVIRELSAAKGEPEWMLEFRLKSYETFKKMPMQTWGADLSEIDFDDLIYYQKPSDKPARSWDDVPEKIKETFERIGIPEAERAYLAGASAQYESEVVYHNMKEEFQKLGIIFTDTDSALKEYPDLFKQYFAKLVPPTDNKLAALNSAVWSGGTFIYVPKGVKVDIPLQTYFRINNENIGQFERTLIIVDEGASVYYVEGCTAPTYSSNSLHAAIVEIFALDGAYMRYTTIQNWSDNVYNLVTKRAKAQKDATVEWIDGNLGAKTTMKYPSVYLDGEGARGTMLSIAFANAGQHQDTGAKMIHNAPHTSSSIVSKSIAKGGGKVDYRGQVTFNKNSKKSVSHIECDTIIMDDLSASDTIPFNEIHNSQVALEHEAKVSKISEEQLYYLMSRGLSESEATEMIVMGFVEPFTKELPMEYAVELNRLISYEMEGSVG” the “soluble on expression in E. coli” value was “not soluble”.
For “MKPRIYVKVKPERLGAVIGPRGEVKAEIMRRTGTVITVDTENSMVIVEPEAEGIPPVNLMKAAEVVKAISLGFPPEKAFRLLEEDQILVVVDLKQVVGDSQNHLKRIKGRIIGEGGRARRTIEEMTDTYINVGEYEVAIIGDYERAMAAKQAIEMLAEGRMHSTVYRHLERIMREIKRRERLKMWAREEL”, the “soluble on expression in E. coli” value was “soluble”.
With “MGSDKIHHHHHHMISQHVRKKTREYPNRFFDSSVWNDLALRRGDIVIASYAKAGTTWLQQIVAQLIFGGEPNIDVSAISPWVDGVYPDKATKLALLEAQSQRRFMKTHLPADALVTSPLARYLYIGRDGRDIALSLYDHQCAVSQDAQARVHANGGKSGKLRVVSPPGLPRDAYVAHWLEYDGAPFWPLWENVRSWWERREDANVLLLHYADLLDDLPGQIRLIAAFLGITVAQDRWDAIVAHCRFDYMRQHAARYVPQGTGLWREDGKAFFNQGRIGRWREVLPAELNTAYSRRAEAELGRDAAQWLAHGQTQTS” the “soluble on expression in E. coli” value was “not soluble”.
With “MITYKNILIAVDGSHEAEWAFNRAVGVAKRNDAKLTIVNVIDSRTYSSYEVYDAQFTEKSKHFAEELLNGYKEVATNAGVKDVETRLEFGSPKSIIPKKLAHEINADLIMSGTSGLNAVERFIVGSVSESIVRHAPCDVLVVRTEELPADFQPQVATTQLREKYQN” the “soluble on expression in E. coli” value was “not soluble”.
For “MGSDKIHHHHHHMIPRLELRSITKCYPGTVANDAVSLSILPGEIHAVLGENGAGKSTLMKIIYGAAQADSGEIYCDGRRIEAHNPAISRSLGIEMVYQHFALFESVSVVENIALAVKGTFDLDRLAAEIKTLSARYGMPIDPHRRVHDLSVGERQRVEIVRCLLQSPKLLILDEPTSVLTPQAVVKLFETLRQLASEGCSIVYISHKLDEVQELCDTATVLRNGKVTGTAKPKESTSLELARMMVGSQLPQMHVSPSAPSAKPLLEVRGLSAPARDKYGTELTDVSLEVHGGEIVGLAGVSGNGQAELIALLSGERTHPRAETILIGGRPSGHLNAGERRKLGMAFVPEERLGRGAVPPHALWENAVLTAHRAGLVRNALVDRRRAGEFARHIIERFKVKANGPQASAQSLSGGNLQKFIVGRELTLEPKILLVSQPTWGVDVGAAAFIRQTLVDLSRGGAAVLVVSEELDELFEICDRLLVISNGRVSPPLIRKQTNREEIGLLMTRVGHGETRRSEVALED”, the “soluble on expression in E. coli” value was “not soluble”.
In the case of “MSSNNAGESDGTGPALPTVWPGNAYPLGATYDGAGTNFSLFSEIAEKVELCLIDEDGVESRIPLDEVDGYVWHAYLPNITPGQRYGFRVHGPFDPAAGHRCDPSKLLLDPYGKSFHGDFTFGQALYSYDVNAVDPDSTPPMVDSLGHTMTSVVINPFFDWAYDRSPRTPYHETVIYEAHVKGMTQTHPSIPPELRGTYAGLAHPVIIDHLNELNVTAVELMPVHQFLHDSRLLDLGLRNYWGYNTFGFFAPHHQYASTRQAGSAVAEFKTMVRSLHEAGIEVILDVVYNHTAEGNHLGPTINFRGIDNTAYYRLMDHDLRFYKDFTGTGNSLNARHPHTLQLIMDSLRYWVIEMHVDGFRFDLASTLARELHDVDRLSAFFDLVQQDPVVSQVKLIAEPWDVGEGGYQVGNFPGLWTEWNGKYRDTVRDYWRGEPATLGEFASRLTGSSDLYEATGRRPSASINFVTAHDGFTLNDLVSYNDKHNEANGENNRDGESYNRSWNCGVEGPTDDPDILALRARQMRNMWATLMVSQGTPMIAHGDEIGRTQYGNNNVYCQDSELSWMDWSLVDKNADLLAFARKATTLRKNHKVFRRRRFFEGEPIRSGDEVRDIAWLTPSGREMTHEDWGRGFDRCVAVFLNGEAITAPDARGERVVDDSFLLCFNAHDHDVEFVMPHDGYAQQWTGELDTNDPVGDIDLTVTATDTFSVPARSLLVLRKTL”, the “soluble on expression in E. coli” value is reported as “not soluble”.
For “MSLTDEPKLLAEPREGVPNVIDTLPAFRDYCSELASSHGSLAADAERASGFRYGHEDWLVQFKRDGAGIGLLDPQALAAAGADWNDFNRAVGDAVWILHDSLQDLPGFDELGMEPQRLFDTEIAARLLGLKRFGLAAVTEHFLGLTLAKEHSAADWSYRPLPRDWRNYAALDVELLIELETKMRAELKRQGKMEWAQEEFDYALKEGLGPRKEHLIPWMHVSHITEVMRDRQALAIVRALWTRRDELAREYDIAPTLLLSDSSIIEVAKRKPHNAAQFRSIRSINERVRIHTDSEQDKMFERYAPIQRKIKPSMWKNIIQDALALPPSEWPDVDGGAARRHESQSASAPKSIRVWKERYPERLQVLNRVRKAVSQIAEDTRTPVEIVIKPQYLRNLCWTDEPRKRDVARFLSEQGARDWQVSLVAESVSRAIEGHHHHHH”, the “soluble on expression in E. coli” value was “soluble”.
With “MDDLQADDIKTSDENSAMVLLVDDQAMIGEAVRRGLAGHESIDFHFCADPHQAIAQAVQIKPTVILQDLVMPGLDGLTLVREYRSNPLTRDIPIIVLSTKEDPLIKSAAFAAGANDYLVKLPDNIELVARIRYHSRSYMTLLQRDEAYRALRVSQQQLLDTNLVLQRLMNSDGLTGLSNRRHFDEYLELEWRRATRDQAQLSLLMIDVDYFKAYNDNFGHLEGDEALRQVAKAIRNSCSRPSDLPARYGGEEFAMVLPNTSPGGARLLAEKLRQSVAGMNIPHIAPVPGSSLTVSIGVATVTPQVGQHSRQLILDADKGLYLAKNNGRNQVAAG” the “soluble on expression in E. coli” value was “soluble”.
In the case of “SESLRIIFAGTPDFAARHLDALLSSGHNVVGVFTQPDRPAGRGKKLMPSPVKVLAEEKGLPVFQPVSLRPQENQQLVAELQADVMVVVAYGLILPKAVLEMPRLGCINVHGSLLPRWRGAAPIQRSLWAGDAETGVTIMQMDVGLDTGDMLYKLSCPITAEDTSGTLYDKLAELGPQGLITTLKQLADGTAKPEVQDETLVTYAEKLSKEEARIDWSLSAAQLERCIRAFNPWPMSWLEIEGQPVKVWKASVIDTATNAAPGTILEANKQGIQVATGDGILNLLSLQPAGKKAMSAQDLLNSRREWFVPGNRLV”, the “soluble on expression in E. coli” value is reported as “soluble”.
For “MSLTGKPIVLGLTISTTAAAGVADHADHMNGSLLAQEEINANGGILGRPLELRPVDVDLLSAESCQASIRKLVDLKVHAISSPFLFVPIPAMDASANYKCPYVNGNTQRAATDMVAKHPEKYNHIFQMDPSEVFYGETFPVFLESLADSGNWKPKNNKVHIVQEQIAYCQTISRACQEALKKSRFELAKVTDIQYPVQDWGSVIRDIKKTGAGTVMMDHWVAAEYAAFCKQFRANPLKGTLIYLQYGPSQPEFLELTGKAAEGFVWSTMLGVYADKKGQAFRDKYQKRFPGKTMGLCYTGGGYDIAYMMAQAWNAVGNPDDFKAVNDYIRKTAFRGVCGWSYMNNPRQEARHFPLGTDSIESGMSQLYFQIQDGKNKIIYPPQLKEGHHHHHH”, the “soluble on expression in E. coli” value was “soluble”.
With “FVKSGWLLRQSTILKRWKKNWFDLWSDGHLIYYDDQTRQSIEDKVHMPVDCINIRTGHECRDIQPPDGKPRDCLLQIVCRDGKTISLCAESTDDCLAWKFTLQDSRT” the “soluble on expression in E. coli” value was “soluble”.
For “MDVNTTYTKELSIIVPIYNEERELPELVRRLSAAAASITEDYELIFVNDGSRDGSMELLRSLCKGDDRFFYINLSRNFGHQIAVSAGLDHVRGKATVIIDGDLQDPPELIPELYAKYREGYEVVYAQRKHREGETWFKKATAKGFYRTMRKITSIDMPLDTGDFRLIDRKIVQCLREMPEQNKFLRGQIAWMGFRQTGVQFDRDERKYGQTNYPLRKMLALAIDGITGFSSRPLEWVAQ”, the “soluble on expression in E. coli” value was “not soluble”.
In the case of “AGSDEVNRNECKTVVPLHTWVLISNFKLSYNILRRADGTFERDLGEYLDRRVPANARPLEGVSSFDHIIDQSVGLEVRIYRAAAEGDAEEGAAAVTRPILEFLTDAPAAEPFPVIIFFHGGSFVHSSASSTIYDSLCRRFVKLSKGVVVSVNYRRAPEHRYPCAYDDGWTALKWVMSQPFMRSGGDAQARVFLSGDSSGGNIAHHVAVRAADEGVKVCGNILLNAMFGGTERTESERRLDGKYFVTLQDRDWYWKAYLPEDADRDHPACNPFGPNGRRLGGLPFAKSLIIVSGLDLTCDRQLAYADALREDGHHVKVVQCENATVGFYLLPNTVHYHEVMEEISDFLNANLYYGSHHHHHHHHHH”, the “soluble on expression in E. coli” value is reported as “soluble”.
For “MGSDKIHHHHHHMSFDAMNTTLSLNTSAGSQALTVRDPWALVPSLGDLNAYIAAVNRLPMLTLEEEQSLGQRLRDEHDLEAAGRLVLSHLRLVVSVSRQYLGYGLPHGDLIQEGNVGLMKAVKRFDPSQGVRLVSYALHWIKAEIHEYVLRNWRMVKLATTKAQRKLFFNLRSMKQGFKGDATDSDLHRSTLTDAEIDIVASELKVKREEVIEMETRLSGGDVALDPQTDDGDESYAPIAYLADDRHEPTRVLDAQRRDALAGDGIGEALDVLDARSRRIVEERWLKVNDNGSGGMTLHELAAEYGVSAERIRQIEVAAMKKMRKALAAYA”, the “soluble on expression in E. coli” value was “not soluble”.
For “MKVTQLSSETLDRAHERFEETLAQMTVAEANTMPAPLIKSVTWLMWHTARELDLQISALNHSDPLWLSQHWTEKFALDLPDETEDWHHTPEEAAKVVVAEKQLLSDYLAASVALTKSYLDQIKEEQLSDVIDKNWTPPVTRQVRLVSAIDDAVMHSGQAVYTRRLVIGK”, the “soluble on expression in E. coli” value was “soluble”.
With “MMRNSHTIENFERMPDGETSSLPDITNYQESVDENPVEECSAYSDTIATCSMCLQVAPHSQFFACTYPGCGYALKQKESVKSPTLFYRKERVLCGACAFLGDHAHHKAYLLKADKLAFLTASREIGGKLEMDMEEVCRLDKSHPVDNAMIIKSGGHVELEKISVVSFLSQAKTIEEWHSRHCMVNEMLSTIKYNREQGIDYLRKQSEKVMTLLNNAAQEIKSVSRTLPKQLTNQDKPHTSFGRRQHASQKNTEWANEEYSPFSSTCSESSTSTLHMAKALQSVDDEVTGGFGGFGFGFGASAVNKSLKGQIKSENYTSIAVTRLYKMLIRTEPKETALRRAADYLNELTHSKTEKKAVIEYMEKKHSIKWPEHII” the “soluble on expression in E. coli” value was “not soluble”.
For “VTLRVVPESLAGASAAIEAVTARLAAAHAAAAPFIAAVIPPGSDSVSVCNAVEFSVHGSQHVAMAAQGVEELGRSGVGVAESGASYAARDALAAASYLSGGL”, the “soluble on expression in E. coli” value was “not soluble”.
For “MSLSKMAALITQEIGSFRKPEYLSMEFHKIEGTEKFKELAERATIDTLKIFENTGLDNVGIGGEMYRWEMYEHPAERIKGLIFYGMVRSFDNRYYRKGSVIDKIERRGSFHMDEVEFVAKSTKKPIKIPITGPYTMMDWSFNDHYNDRHELAMEFARIINEELKEIQSKWPYISNGRKLEIQIDEPATTTHPDEMDIVVDSVNKSIEGIDAELSLHVCYSRDYRLLYDRIPELNIDGYNLEYSNRDTTDLGVEDAKRPGFQDIKYFNEVNESLQRKKFIGVGVTDVHIDFIEPVKLIEDRIKYVLNIIKDPELVKLNPDCGLRTRSRSIGEQKLRNMVIAKNNVLKDISEGHHHHHH”, the “soluble on expression in E. coli” value was “not soluble”.
For “MELRELFEVQGELDAHIEKIHPRKEGEKRLEEKILALQTELGEIANEWRQFKFWSNDREPRTERLLEEYVDGFHFVLSIGLEESKRYGQSVPIRLGLPDELTSICYETTIQQFNYLFSEIGRLYDSVTLHEVAADTEVEEAYENIIRMFIGLGEKLGFTEKEIAEGYMRKNMINHERQKNGY”, the “soluble on expression in E. coli” value was “not soluble”.
